Experimental data reported in patent US20180127480A1 (Stanford University, published 2018).
Where a chain is given by its changes, count along the chain named. Names may count otherwise.

B1: biotinylated high affinity CD47 variant N3612 C15G (designed binder)
chain: WQPPLLFNKTKSVEFTFGNDTVVIPCFVTNMEAQNTTEVYVKWKFKGRDIYTFDGQANKSTVPTDFSSAKIEVSQLLKGDASLKMDKSDAVSHTGNYTCEVTELTREGETIIELKYRVVSGLNDIFEAQKIEWHE
modifications: biotin on the biotin acceptor peptide tag (BirA ligase)
notes: An 8x histidine tag is probably also present (Ni-NTA purification)
B2: N3612 F14C coupled to Alexa Fluor 647 (designed binder)
chain: WQPPLLFNKTKSVEFTCGNDTVVIPCFVTNMEAQNTTEVYVKWKFKGRDIYTFDGQANKSTVPTDFSSAKIEVSQLLKGDASLKMDKSDAVSHTGNYTCEVTELTREGETIIELKYRVVSHHHHHHHH
modifications: Alexa Fluor 647 maleimide on the cysteine at position 14 (F14C, mature CD47 numbering)
B3: N3612 C15 coupled to Alexa Fluor 647 (designed binder)
chain: B2 chain with C17F, G18C
modifications: Alexa Fluor 647 (maleimide chemistry) on the cysteine at position 15 (mature CD47 numbering)
notes: The production of this form is not described separately

These binders were tested against T1, SIRPα a1d1 expressed on yeast (human, UniProt P78324 31-149, limits assumed) (assay: flow cytometry titration on yeast expressing SIRPα a1d1).
T1 construct: domain: domain 1; also called SIRPα a1d1-expressing yeast
Source text: FIG. 6B Graph showing binding of different CD47 species to SIRPα a1d1-expressing yeast in titration experiments. […] FIG. 6C Graph showing binding to SIRPα a2d1-expressing yeast in titration experiments (CD47 species are the same as in FIG. 6B).
High affinity CD47 variants were modified to produce diagnostic agents. […] In the original high affinity CD47 variants isolated, the cysteine at position 15 (C15) had been changed to a G (C15G variants). To enable coupling of high affinity CD47 variants to a fluorescent moiety, position 15 was reverted to a Cysteine (C15) or the Phenylalanine (F) at position 14 was changed to a Cysteine (F14C). Binding of such reagents to SIRPα was tested. […] As shown in these figures, the high affinity CD47 reagents can detect SIRPα expression on cells, both engineered and non-engineered, much better than the wildtype molecule. Indeed, as show in FIG. 6D, these reagents can perform as well as anti-SIRPα antibody in such assays.

T1 sequence (P78324 31-149 limits assumed): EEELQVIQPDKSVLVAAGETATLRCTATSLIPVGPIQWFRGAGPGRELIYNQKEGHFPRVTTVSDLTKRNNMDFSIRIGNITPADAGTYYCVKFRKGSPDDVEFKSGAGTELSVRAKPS

Row | EC50 (read off the curve) [nM] | Binder
1 | ~3 | B1
2 | ~5 | B2
3 | ~5 | B3
